The values below come from article PMC3695229 (2013).

* marks the point of attachment. Biotin = O=C1N[C@H]2[C@H](CS[C@H]2CCCCC(=O)*)N1

Sequences and labels used below:
T1: TGF-β2 (Homo sapiens, UniProt P61812)
T1 chain: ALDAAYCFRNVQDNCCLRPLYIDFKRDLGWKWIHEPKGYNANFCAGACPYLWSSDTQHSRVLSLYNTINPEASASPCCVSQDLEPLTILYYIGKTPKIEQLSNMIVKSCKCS

B1: P5-hZP 734-750 (peptide)
chain: Biotin-DASIIWAMMQNKKTFTK-NH2
B2: P4-mZP 732-748 (peptide)
chain: Biotin-DATMIWTMMQNKKTFTK-NH2
B3: P1-mZP ZP-C peptide (peptide)
chain: MIWTMMQNKKTFTKP

This test has as its target T1, TGF-β2. The test is described as follows: SPR.
Take B1: the dissociation constant Kd was ~350 nM.

Regarding B2, the Kd is ~190 nM.

In turn, B3 yielded a Kd of 8 nM.
